“And” between values parts separate entries of the source, which are not always exact repeats. Equal values may be shown once.
T1: human CD37 (human, UniProt P11049 1-278)
T1 sequence: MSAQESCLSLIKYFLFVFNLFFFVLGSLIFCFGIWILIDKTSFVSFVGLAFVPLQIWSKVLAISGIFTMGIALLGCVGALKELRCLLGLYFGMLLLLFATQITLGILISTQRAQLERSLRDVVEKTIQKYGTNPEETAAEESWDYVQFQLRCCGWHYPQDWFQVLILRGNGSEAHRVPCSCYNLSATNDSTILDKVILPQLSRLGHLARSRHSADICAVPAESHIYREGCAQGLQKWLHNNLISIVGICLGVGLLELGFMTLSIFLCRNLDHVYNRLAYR

T2: macaque CD37 (macaque, UniProt P11049 1-277 (human entry))
T2 construct: Expressed on 300-19 cells transfected with pSRa-CD37mac (300-19/CD37mac cells); also called macaca CD37; macaque derived CD37 antigen
T2 chain: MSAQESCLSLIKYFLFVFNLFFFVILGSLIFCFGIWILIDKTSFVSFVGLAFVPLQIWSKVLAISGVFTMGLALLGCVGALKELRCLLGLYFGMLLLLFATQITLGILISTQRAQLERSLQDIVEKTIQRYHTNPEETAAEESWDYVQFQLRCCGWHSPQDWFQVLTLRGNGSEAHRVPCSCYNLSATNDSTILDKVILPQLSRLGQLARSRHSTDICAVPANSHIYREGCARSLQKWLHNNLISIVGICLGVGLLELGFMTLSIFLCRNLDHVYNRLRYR


Legend:
human CD37 [1] = biological target: T1, human CD37; test: cell-based or functional assay
human CD37 [2] = biological target: T1, human CD37; test: flow cytometry titration; apparent Kd; cells not named
human CD37 [3] = biological target: T1, human CD37; test: flow cytometry titration on BJAB cells; apparent Kd
Protocol: (§1) Binding specificity was tested by flow cytometry using purified antibodies. […] All murine antibodies were incubated for 3 h with either CD37-expressing 300-19 cells or the non-transfected 300-19 cells (1×10⁵ cells per sample) in 100 μL FACS buffer (RPMI-1640 medium supplemented with 2% normal goat serum). Then, the cells were pelleted, washed, and incubated for 1 h with 100 μL of FITC-conjugated goat anti-mouse IgG-antibody (Jackson Laboratory, 6 μg/mL in FACS buffer). The cells were pelleted again, washed with FACS buffer and resuspended in 200 μL of PBS containing 1% formaldehyde. Samples were acquired using a FACSCalibur flow cytometer with the HTS multiwell sampler or a FACS array flow cytometer and analyzed using CellQuest Pro (all from BD Biosciences, San Diego, US).
The humanized antibodies huCD37-38, huCD37-50, huCD37-51, huCD37-56 and chCD37-57 were assayed for their binding affinity to BJAB cells in comparison to their murine counterparts. Flow cytometry binding assays were carried out using secondary FITC-conjugated goat-anti-murine and -anti-human antibodies, analyzed as described in Example 2 and dose-response curves were generated by non-linear regression for each antibody. The value for the apparent dissociation constant (Kd) of each antibody was calculated using GraphPad Prism v4 (GraphPad software, San Diego, Calif.).

macaque CD37 = biological target: T2, macaque CD37; test: flow cytometry titration on 300-19/CD37mac cells; apparent Kd
Protocol: as §1
Flow cytometry binding assays were carried out using secondary FITC-conjugated goat-anti-human antibodies, analyzed as described in Example 2 and dose-response curves were generated by non-linear regression for each antibody. The value for the apparent dissociation constant (Kd) of each antibody was calculated using GraphPad Prism v4 (GraphPad software, San Diego, Calif.).

| Binder | Kd (human CD37 [2]) | Kd (human CD37 [3]) [nM] | Kd (macaque CD37) [nM] | EC50 of in vitro cytotoxicity, WST-8 assay, Daudi cells (human CD37 [1]) [nM] | also measured |
| --- | --- | --- | --- | --- | --- |
| huCD37-51-SMCC-DM1 (antibody, human IgG1, kappa, V domains shown, DM1 attached through SMCC linker; attachment residues and load not stated, SMCC-DM1 conjugate of huCD37-51) VH: EVQLVESGPEVLKPGESLSLTCTVSGYSISSGFAWHWIRQFPGKGLEWMGYIHYSGSTNYSPSLQGRISITRDSSINQFFLQLNSVTASDTATYYCARGYYGFGAWFVYWGQGTLVTVSA VL: EIVLTQSPATMSASPGERVTMTCSATSSVTYMHWYQQKPGQSPKRWIYDTSKLASGVPARFSGSGSGTSYSLTISSMEAEDAATYYCQQWSSNPPTFGQGTKLEIKR | 1.6 nM |  |  | 0.2 | EC50 of in vitro cytotoxicity, WST-8 assay, Granta-519 cells (human CD37 [1]): 0.25 nM |
| huCD37-50-PEG4-mal-DM1 (antibody, human IgG1, kappa, V domains shown, DM1 attached through PEG4-mal linker; attachment residues and load not stated, PEG4-mal-DM1 conjugate of huCD37-50) VH: QVQLQESGPGLLKPSQSLSLTCTVSGYSITSGFAWHWIRQHPGNKLEWMGYILYSGSTVYSPSLKSRISITRDTSKNHFFLQLNSVTAADTATYYCARGYYGYGAWFAYWGQGTLVTVSA VL: EIVLTQSPATMSASPGERVTMTCSATSSVTYMHWYQQKPGQSPKRWIYDTSNLPYGVPARFSGSGSGTSYSLTISSMEAEDAATYYCQQWSDNPPTFGQGTKLEIKR | 1.1 nM |  |  |  |  |
| huCD37-50 (antibody, human IgG1, kappa, V domains shown, Resurfaced (humanized) antibody) VH: QVQLQESGPGLLKPSQSLSLTCTVSGYSITSGFAWHWIRQHPGNKLEWMGYILYSGSTVYSPSLKSRISITRDTSKNHFFLQLNSVTAADTATYYCARGYYGYGAWFAYWGQGTLVTVSA VL: EIVLTQSPATMSASPGERVTMTCSATSSVTYMHWYQQKPGQSPKRWIYDTSNLPYGVPARFSGSGSGTSYSLTISSMEAEDAATYYCQQWSDNPPTFGQGTKLEIKR | 0.43 nM and 0.68 nM | 0.2 | 1.8 |  |  |
| huCD37-51 (antibody, human IgG1, kappa, V domains shown, Humanized antibody) VH: EVQLVESGPEVLKPGESLSLTCTVSGYSISSGFAWHWIRQFPGKGLEWMGYIHYSGSTNYSPSLQGRISITRDSSINQFFLQLNSVTASDTATYYCARGYYGFGAWFVYWGQGTLVTVSA VL: EIVLTQSPATMSASPGERVTMTCSATSSVTYMHWYQQKPGQSPKRWIYDTSKLASGVPARFSGSGSGTSYSLTISSMEAEDAATYYCQQWSSNPPTFGQGTKLEIKR | 2 nM | 0.8 | 14 |  |  |

Further binders by falling Kd (human CD37 [2]), results first:

| Kd (human CD37 [2]) | Kd (human CD37 [3]) [nM] | Kd (macaque CD37) [nM] | Binder | EC50 of in vitro cytotoxicity, WST-8 assay, Daudi cells (human CD37 [1]) [nM] | also measured |
| --- | --- | --- | --- | --- | --- |
| 0.7 nM |  |  | huCD37-50-SMCC-DM1 (antibody, human IgG1, kappa, V domains shown, DM1 attached through SMCC linker; attachment residues and load not stated, SMCC-DM1 conjugate of huCD37-50) VH: QVQLQESGPGLLKPSQSLSLTCTVSGYSITSGFAWHWIRQHPGNKLEWMGYILYSGSTVYSPSLKSRISITRDTSKNHFFLQLNSVTAADTATYYCARGYYGYGAWFAYWGQGTLVTVSA VL: EIVLTQSPATMSASPGERVTMTCSATSSVTYMHWYQQKPGQSPKRWIYDTSNLPYGVPARFSGSGSGTSYSLTISSMEAEDAATYYCQQWSDNPPTFGQGTKLEIKR | 0.13 | EC50 of in vitro cytotoxicity, WST-8 assay, Granta-519 cells (human CD37 [1]): 0.12 nM |
| 0.35 nM |  |  | huCD37-3-PEG4-mal-DM1 (antibody, human IgG1, kappa, V domains shown, DM1 attached through PEG4-mal linker; attachment residues not stated; 3.5-4 maytansinoid molecules per antibody, heavy chain version as for huCD37-3, see its note) VH: QVQVQESGPGLVAPSQTLSITCTVSGFSLTTSGVSWVRQPPGKGLEWLGVIWGDGSTNYHPSLKSRLSIKKDHSKSQVFLKLNSLTAADTATYYCAKGGYSLAHWGQGTLVTVSS VL: DIQMTQSPSSLSVSVGERVTITCRASENIRSNLAWYQQKPGKSPKLLVNVATNLADGVPSRFSGSGSGTDYSLKINSLQPEDFGTYYCQHYWGTTWTFGQGTKLEIKR |  | EC50 of in vitro cytotoxicity, BJAB cells (human CD37 [1]): 0.01 nM; EC50 of in vitro cytotoxicity, Daudi cells (human CD37 [1]): 0.018 nM; EC50 of in vitro cytotoxicity, Granta-519 cells (human CD37 [1]): 0.012 nM; EC50 of in vitro cytotoxicity, Namalwa cells (human CD37 [1]): 0.024 nM; EC50 of in vitro cytotoxicity, Raji cells (human CD37 [1]): 0.045 nM; EC50 of in vitro cytotoxicity, Raji-VCR cells (human CD37 [1]): 0.037 nM; EC50 of in vitro cytotoxicity, Ramos cells (human CD37 [1]): 0.069 nM; EC50 of in vitro cytotoxicity, SU-DHL-4 cells (human CD37 [1]): 0.024 nM |
| 0.34 nM |  |  | huCD37-56-SMCC-DM1 (antibody, human IgG1, kappa, V domains shown, DM1 attached through SMCC linker; attachment residues and load not stated, SMCC-DM1 conjugate of huCD37-56) VH: QVQLQESGPGLVKPSQSLSLTCTVSGYSITSGFAWHWIRQFPGKGLEWMGYIHYSGGTNYNPSLKSRVSITRDTSKNQFFLQLNSVTAADTATYYCARGYYGFGAWFAYWGQGTLVPVSA VL: DIVLTQSPAFMSASPGEKVTMTCSASSSVTYMHWYQQKPDQSPKRWIYDTSNLASGVPSRFSGGGSGTDYSLTISSMEAEDAATYYCQQWISDPPTFGQGTKLEIKR | 0.31 |  |
| 0.34 nM |  |  | huCD37-57-SMCC-DM1 (antibody, human IgG1, kappa, V domains shown, DM1 attached through SMCC linker; attachment residues and load not stated, SMCC-DM1 conjugate of huCD37-57) VH: QVQLQESGPGLLKPSQSLSLTCTVSGYSITSGFAWHWIRQFPGKGLEWMGYILYSGSTVYSPSLKSRISITRDTSKNQFFLQLNSVTAADTATYYCARGYYGYGAWFAYWGQGTLVTVSA VL: EIVLTQSPATMSASPGERVTMTCSATSSVTYMHWYQQKPGQSPRRWIYDTSNLASGVPARFSGSGSGTSYSLTISSMEAEDAATYYCQQWSDNPPTFGQGTKLEIKR | 0.35 |  |
| 0.3 nM | 0.2 | 5 | huCD37-56 (antibody, human IgG1, kappa, V domains shown, Humanized antibody) VH: QVQLQESGPGLVKPSQSLSLTCTVSGYSITSGFAWHWIRQFPGKGLEWMGYIHYSGGTNYNPSLKSRVSITRDTSKNQFFLQLNSVTAADTATYYCARGYYGFGAWFAYWGQGTLVPVSA VL: DIVLTQSPAFMSASPGEKVTMTCSASSSVTYMHWYQQKPDQSPKRWIYDTSNLASGVPSRFSGGGSGTDYSLTISSMEAEDAATYYCQQWISDPPTFGQGTKLEIKR |  |  |
| 0.3 nM |  | 2 | huCD37-57 (antibody, human IgG1, kappa, V domains shown, Humanized antibody) VH: QVQLQESGPGLLKPSQSLSLTCTVSGYSITSGFAWHWIRQFPGKGLEWMGYILYSGSTVYSPSLKSRISITRDTSKNQFFLQLNSVTAADTATYYCARGYYGYGAWFAYWGQGTLVTVSA VL: EIVLTQSPATMSASPGERVTMTCSATSSVTYMHWYQQKPGQSPRRWIYDTSNLASGVPARFSGSGSGTSYSLTISSMEAEDAATYYCQQWSDNPPTFGQGTKLEIKR |  |  |
